Bridge positions count the residues as written; N and C are the ends. Square brackets hold non-standard residues; d marks the D form. Ends that are not written are not given here. NMeL = CN[C@@H](CC(C)C)C(=O)O; hCys = N[C@@H](CCS)C(=O)O; Orn = NCCC[C@H](N)C(=O)O
Tests used:
[1] = Molecular stability of cyclic peptide after reducing agent (DTT) treatment, LC; type: physicochemical; conditions: residual rate after 12.6 mmol/L DTT aqueous solution, room temperature, 1 hour
Description: The molecular stability of the cyclic peptide was evaluated by analyzing an aqueous solution of the cyclic peptide treated with a reducing agent by liquid chromatography (LC).
The reducing agent treatment was performed under the following conditions based on the concentration of glutathione contained in the cells. 25 μL of a 0.2 mg/mL cyclic peptide aqueous solution was prepared, 58.8 μL of a 12.6 mmol/L DTT aqueous solution was added to the aqueous solution, and the mixture was incubated at room temperature for 1 hour to obtain an aqueous solution of the cyclic peptide treated with a reducing agent. The DTT aqueous solution was used by diluting a 1 mol/L (+-)-dithiothreitol (DTT) solution (FUJIFILM Wako Pure Chemical Corporation, 044-33871) with water. The total area of all the peaks in LC/MS of the cyclic peptide before the reducing agent treatment was set to 100%, and the proportion of the total area of all the peaks in LC/MS of the aqueous solution of the cyclic peptide treated with the reducing agent was determined to calculate the residual rate of the cyclic peptide, and the molecular stability was evaluated according to the following evaluation criteria. The evaluation result preferably satisfies the evaluation criteria A, B, or C.
• A: The residual rate of cyclic peptide is 90% or more. • B: The residual rate of the cyclic peptide is 70% or more and less than 90% • C: The residual rate of the cyclic peptide is 50% or more and less than 70% • D: The residual rate of the cyclic peptide is less than 50%
The LC used for the evaluation of molecular stability was set to the following conditions. • LC device: Prominence series (pump, column oven, autosampler, detector) (manufactured by Shimadzu Corporation) • Detector: photodiode array detector (SPD-M20A), measurement wavelength of 280 nm • Column: TSKgel ODS-100V, inner diameter of 4.6 mm×length of 150 mm, particle diameter of 5 μm (manufactured by Tosoh Corporation) • Eluent A: solution containing 0.1% trifluoroacetic acid as solute, and solvent is 100% water • Eluent B: solution containing 0.1% trifluoroacetic acid as solute, and solvent is 100% acetonitrile • Flow rate: 1.0 mL/min • Injection amount: 25 μL • Gradient: 20% to 50%: Eluent B (0 to 15 minutes), 100%: Eluent B (15 minutes) • Column temperature: 40° C.

[2] = test system: Recombinant Human FGFR 1 alpha (IIIc) Fc Chimera Protein; assay: Binding affinity of chemically synthesized cyclic peptide to immobilized FGFR by SPR; conditions: 10 nmol/L cyclic peptide, 25° C., binding amount per one molecule of FGFR, chemically synthesized product
Description: The binding affinity of the cyclic peptide to FGFR was evaluated using a surface plasmon resonance (SPR) method.
A CM5 sensor chip (Cytiva, 29149603) was set in Biacore-T200 (manufactured by Cytiva) which is a surface plasmon resonance device, and an HBS-EP buffer (Cytiva, BR100826) was added as a running buffer at a flow rate of 10 μL/min to equilibrate the flow channel. Next, 70 μL of a mixed aqueous solution of 0.2 mol/L 1-(3-dimethylaminopropyl)-3-ethylcarbodiimide (EDC) and 0.05 mol/L N-hydroxysuccinimide (NHS) was added to activate the sensor chip. Then, Recombinant Human FGFR 1 alpha (IIIc) Fc Chimera Protein CF (R&D systems, 658-FR-050) prepared at 50 nmol/L in an Acetate 4.5 buffer (Cytiva, BR100350) was added thereto to perform immobilization at about 5000 RU. Thereafter, the blocking treatment was performed with an ethanolamine solution. In addition, in another flow channel of the same sensor chip, blocking treatment was performed immediately after activation without immobilizing FGFR.
A cyclic peptide diluted to 10 nmol/L using HBS-EP was added to each flow channel of the FGFR-immobilized sensor chip produced above at 25° C. for 10 minutes, then HBS-EP was allowed to flow as a running buffer for 30 minutes, and the binding of the cyclic peptide to FGFR was measured. Thereafter, a regeneration treatment of removing the bound cyclic peptide was performed by repeating the flow of a regeneration liquid in which sodium chloride powder was dissolved in Glysine 1.5 (Cytiva, BR100354) to a final concentration of 0.15 mol/L for 1 minute in each flow channel twice. The binding amount of the cyclic peptide was evaluated from the difference between the measured value of Biacore-T200 in the flow channel in which FGFR was immobilized and the measured value of Biacore-T200 in the flow channel in which FGFR was not immobilated, in a case where a 10 nmol/L cyclic peptide was allowed to flow.
The binding amount of the cyclic peptide evaluated above was normalized to the binding amount of the cyclic peptide molecules per one molecule of FGFR using the molecular weights of the cyclic peptide and FGFR, and the binding affinity to FGFR was evaluated according to the following evaluation criteria. The evaluation result preferably satisfies the evaluation criteria A, B, or C.
• A: The binding amount is 0.7 molecules of the cyclic peptide/one molecule of FGFR or more. • B: The binding amount is 0.5 molecules of the cyclic peptide/one molecule of FGFR or more and less than 0.7 molecules of cyclic peptide/one molecule of FGFR. • C: The binding amount is 0.1 molecules of cyclic peptide/one molecule of FGFR or more and less than 0.5 molecules of cyclic peptide/one molecule of FGFR. • D: The binding amount is less than 0.1 molecules of the cyclic peptide/one molecule of FGFR.

With “374 (HXSYERLQFHGHEAPFRVKVKKK; not fully specified; Description of Artificial Sequence: Cyclic peptide) [compound 374]” the “Evaluation result of reductive stability” value [1] was “A (The residual rate of cyclic peptide is 90% or more.)” and the “Evaluation result of binding affinity to FGFR” value (from here on “Evaluation result … to FGFR”) [2] was “A (The binding amount is 0.7 molecules of the cyclic peptide/one molecule of FGFR or more.)”.
For “375 (HXSYERLQFHGHEAPFRVXVKKK; not fully specified; Description of Artificial Sequence: Cyclic peptide) [compound 375]”, the “Evaluation result of reductive stability” value [1] was “A (The residual rate of cyclic peptide is 90% or more.)” and the “Evaluation result … to FGFR” value [2] was “A (The binding amount is 0.7 molecules of the cyclic peptide/one molecule of FGFR or more.)”.
In the case of “376 (HXSYERLQFHGHEAPFRVXVKKK; not fully specified; Description of Artificial Sequence: Cyclic peptide) [compound 376]”, the “Evaluation result of reductive stability” value [1] is reported as “A (The residual rate of cyclic peptide is 90% or more.)” and the “Evaluation result … to FGFR” value [2] is reported as “A (The binding amount is 0.7 molecules of the cyclic peptide/one molecule of FGFR or more.)”.
In the case of “377 (HXSYERLQFHGHEAPFRVXVKKK; not fully specified; Description of Artificial Sequence: Cyclic peptide) [compound 377]”, the “Evaluation result of reductive stability” value [1] is reported as “A (The residual rate of cyclic peptide is 90% or more.)” and the “Evaluation result … to FGFR” value [2] is reported as “A (The binding amount is 0.7 molecules of the cyclic peptide/one molecule of FGFR or more.)”.
For “378 (HKSYERLQFHGHEAPFRVXVKKK; not fully specified; Description of Artificial Sequence: Cyclic peptide) [compound 378]”, the “Evaluation result of reductive stability” value [1] was “A (The residual rate of cyclic peptide is 90% or more.)” and the “Evaluation result … to FGFR” value [2] was “A (The binding amount is 0.7 molecules of the cyclic peptide/one molecule of FGFR or more.)”.
In the case of “379 (HXSYERLQFHGHEAPFRVXVKKK; not fully specified; Description of Artificial Sequence: Cyclic peptide) [compound 379]”, the “Evaluation result of reductive stability” value [1] is reported as “A (The residual rate of cyclic peptide is 90% or more.)” and the “Evaluation result … to FGFR” value [2] is reported as “A (The binding amount is 0.7 molecules of the cyclic peptide/one molecule of FGFR or more.)”.
With “380 (HXSYERLQFHGHEAPFRVXVKKK; not fully specified; Description of Artificial Sequence: Cyclic peptide) [compound 380]” the “Evaluation result of reductive stability” value [1] was “A (The residual rate of cyclic peptide is 90% or more.)” and the “Evaluation result … to FGFR” value [2] was “A (The binding amount is 0.7 molecules of the cyclic peptide/one molecule of FGFR or more.)”.
With “381 (HXSYERLQFHGHEAPFRVXVKKK; not fully specified; Description of Artificial Sequence: Cyclic peptide) [compound 381]” the “Evaluation result of reductive stability” value [1] was “A (The residual rate of cyclic peptide is 90% or more.)” and the “Evaluation result … to FGFR” value [2] was “A (The binding amount is 0.7 molecules of the cyclic peptide/one molecule of FGFR or more.)”.
With “384 (H[Orn]SYERLIFHGHEAPFWV[hCys]VKKK; bridge 2-19; not fully specified (residue 2, bridges); printed as H-(Orn(acetyl))-SYERLIFHGHEAPFWV-(Hcy)-VKKK) [compound 384]” the “Evaluation result of reductive stability” value [1] was “B (The residual rate of the cyclic peptide is 70% or more and less than 90%)” and the “Evaluation result … to FGFR” value [2] was “A (The binding amount is 0.7 molecules of the cyclic peptide/one molecule of FGFR or more.)”.
In the case of “385 ([Orn]SYERLIFHGHEAPFWV[hCys]KKK; bridge 1-18; not fully specified (residue 1, bridges); printed as (Orn(acetyl))-SYERLIFHGHEAPFWV-(Hcy)-KKK) [compound 385]”, the “Evaluation result of reductive stability” value [1] is reported as “A (The residual rate of cyclic peptide is 90% or more.)” and the “Evaluation result … to FGFR” value [2] is reported as “C (The binding amount is 0.1 molecules of cyclic peptide/one molecule of FGFR or more and less than 0.5 molecules of cyclic peptide/one molecule of FGFR.)”.
In the case of “386 ({CH2CO}-HASYERLIFHGHEAPFWVCVKKK; thioether N-19 (inferred)) [compound 386]”, the “Evaluation result of reductive stability” value [1] is reported as “A (The residual rate of cyclic peptide is 90% or more.)” and the “Evaluation result … to FGFR” value [2] is reported as “B (The binding amount is 0.5 molecules of the cyclic peptide/one molecule of FGFR or more and less than 0.7 molecules of cyclic peptide/one molecule of FGFR.)”.
With “387 (H[Orn]SYER[NMeL]IFHGHEAPFWV[hCys]VKKK; bridge 2-19; not fully specified (residue 2, bridges)) [compound 387]” the “Evaluation result of reductive stability” value [1] was “A (The residual rate of cyclic peptide is 90% or more.)” and the “Evaluation result … to FGFR” value [2] was “A (The binding amount is 0.7 molecules of the cyclic peptide/one molecule of FGFR or more.)”.
With “389 (H[Orn]SYERLIFHGHEAPFWV[hCys]KKK; bridge 2-19; not fully specified (residue 2, bridges); printed as H-(Orn(acetyl))-SYERLIFHGHEAPFWV-(Hcy)-KKK) [compound 389]” the “Evaluation result of reductive stability” value [1] was “A (The residual rate of cyclic peptide is 90% or more.)” and the “Evaluation result … to FGFR” value [2] was “A (The binding amount is 0.7 molecules of the cyclic peptide/one molecule of FGFR or more.)”.
In the case of “390 ([Orn]SYERLIFHGHEAPFWV[hCys]VKKK; bridge 1-18; not fully specified (residue 1, bridges); printed as (Orn(acetyl))-SYERLIFHGHEAPFWV-(Hcy)-VKKK) [compound 390]”, the “Evaluation result of reductive stability” value [1] is reported as “A (The residual rate of cyclic peptide is 90% or more.)” and the “Evaluation result … to FGFR” value [2] is reported as “C (The binding amount is 0.1 molecules of cyclic peptide/one molecule of FGFR or more and less than 0.5 molecules of cyclic peptide/one molecule of FGFR.)”.
